Series [1] concerns Saccharomyces cerevisiae. The experiment in a line: protein stability index of tFT-peptide fusion (C-terminal peptide) (PSI (0-1 scale)); higher = more stable (slower turnover). The protocol: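 MPS profiling in S. cerevisiae of the tFT-X12 degron library: putative degron peptides plus stable controls, 12 aa, fused to the C-terminus of a sfGFP-mCherry timer. Cells are FACS-sorted into 8 mCherry/sfGFP bins and deep-sequenced. PSI runs from 0 (unstable) to 1 (stable). Backgrounds are wild type, das1Δ and doa10Δ at 30 °C, and wild type, das1Δ, cdc34-1 and cdc53-1 at 37 °C; 2-3 technical replicates each.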

The test system of series [2] is Saccharomyces cerevisiae. Described as above. As to conditions: genetic background: wild type; temperature: 30 C.
Setting [3] is: genetic background: cdc34-1, temperature: 37 C.
[4] abbreviates: genetic background: cdc53-1, temperature: 37 C.
Where [5] appears, read: genetic background: das1 deletion, temperature: 30 C.
[6] abbreviates: genetic background: das1 deletion, temperature: 37 C.
The mark [7] stands for this setting: genetic background: doa10 deletion, temperature: 30 C.
Setting [8] is: genetic background: wild type, temperature: 30 C.
The mark [9] stands for this setting: genetic background: wild type, temperature: 37 C.

± gives the standard deviation of the averaged measurements.
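Note: PSI is a weighted mean of sequencing reads over stability bins, variants kept only with over 10 reads, mCherry proximal and sfGFP distal, peptide attached via GGGS linker.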

For the sequence SLIFRVGKFKSL, the protein stability index worked out at 0.5892 ± 0.0014 with Saccharomyces cerevisiae [1] (setting [3]); 0.6968 ± 0.0048 in the series with Saccharomyces cerevisiae [1] (setting [4]); 0.654 ± 0.019 in the series on Saccharomyces cerevisiae [1] (setting [5]); 0.738 ± 0.012 in the series with Saccharomyces cerevisiae [1] (setting [6]); 0.0628 ± 0.011 with Saccharomyces cerevisiae [1] (setting [7]); 0.0746 ± 0.017 in the series with Saccharomyces cerevisiae [1] (setting [8]). Also, the protein stability index with Saccharomyces cerevisiae [1] (setting [9]) is 0.101 ± 0.0098; in the series with Saccharomyces cerevisiae [2] it was 0.137 ± 0.021.

With SLLLLSLCRFVG, the protein stability index is 0.626 ± 0.022 with Saccharomyces cerevisiae [1] (setting [3]); 0.686 ± 0.017 in the series with Saccharomyces cerevisiae [1] (setting [4]); 0.6 ± 0.012 in the series on Saccharomyces cerevisiae [1] (setting [5]); 0.702 ± 0.023 with Saccharomyces cerevisiae [1] (setting [6]); 0.194 ± 0.02 with Saccharomyces cerevisiae [1] (setting [7]); 0.232 ± 0.036 with Saccharomyces cerevisiae [1] (setting [8]). Besides, the protein stability index worked out at 0.384 ± 0.013 with Saccharomyces cerevisiae [1] (setting [9]) and 0.372 ± 0.026 in the series with Saccharomyces cerevisiae [2].

Take SLPIFSGVASVR: the protein stability index with Saccharomyces cerevisiae [1] (setting [3]) amounted to 0.677 ± 0.014; in the series with Saccharomyces cerevisiae [1] (setting [4]) it was 0.737 ± 0.033; in the series with Saccharomyces cerevisiae [1] (setting [5]), 0.64 ± 0.028; in the series on Saccharomyces cerevisiae [1] (setting [6]) it was 0.778 ± 0.0013; in the series on Saccharomyces cerevisiae [1] (setting [7]), 0.642 ± 0.043; in the series on Saccharomyces cerevisiae [1] (setting [8]), 0.649 ± 0.035. In addition, the protein stability index in the series with Saccharomyces cerevisiae [1] (setting [9]) came to 0.728 ± 0.011; in the series with Saccharomyces cerevisiae [2] it was 0.694 ± 0.022.

Take SLSCYSFFVLAL: the protein stability index is 0.513 ± 0.035 in the series on Saccharomyces cerevisiae [1] (setting [3]); 0.543 ± 0.027 in the series with Saccharomyces cerevisiae [1] (setting [4]); 0.404 ± 0.03 with Saccharomyces cerevisiae [1] (setting [5]); 0.534 ± 0.0054 in the series on Saccharomyces cerevisiae [1] (setting [6]); 0.391 ± 0.014 in the series on Saccharomyces cerevisiae [1] (setting [7]); 0.401 ± 0.025 in the series with Saccharomyces cerevisiae [1] (setting [8]). Further, the protein stability index stood at 0.51315 ± 0.00015 with Saccharomyces cerevisiae [1] (setting [9]) and 0.482 ± 0.0072 with Saccharomyces cerevisiae [2].

With SLVIVLPALIFL, the protein stability index in the series with Saccharomyces cerevisiae [1] (setting [3]) is 0.463 ± 0.026; in the series on Saccharomyces cerevisiae [1] (setting [4]) it was 0.545 ± 0.013; in the series on Saccharomyces cerevisiae [1] (setting [5]), 0.393 ± 0.013; in the series with Saccharomyces cerevisiae [1] (setting [6]), 0.569 ± 0.014; in the series with Saccharomyces cerevisiae [1] (setting [7]), 0.408 ± 0.0052; in the series with Saccharomyces cerevisiae [1] (setting [8]), 0.401 ± 0.024. Moreover, the protein stability index in the series on Saccharomyces cerevisiae [1] (setting [9]) stood at 0.522 ± 0.014; with Saccharomyces cerevisiae [2] it was 0.467 ± 0.035.

On to SPAIRAILAPAG, for which the protein stability index was found to be 0.476 ± 0.059 in the series with Saccharomyces cerevisiae [1] (setting [3]); 0.504 ± 0.013 in the series with Saccharomyces cerevisiae [1] (setting [4]); 0.404 ± 0.021 with Saccharomyces cerevisiae [1] (setting [5]); 0.546 ± 0.0073 in the series with Saccharomyces cerevisiae [1] (setting [6]); 0.402 ± 0.014 in the series with Saccharomyces cerevisiae [1] (setting [7]); 0.43 ± 0.036 in the series on Saccharomyces cerevisiae [1] (setting [8]). Also, the results for the protein stability index in the series with Saccharomyces cerevisiae [1] (setting [9]) and with Saccharomyces cerevisiae [2] were 0.532 ± 0.0079 and 0.445 ± 0.034, respectively.

On to SPLASLRFWCFC, for which the protein stability index was 0.68 ± 0.059 in the series with Saccharomyces cerevisiae [1] (setting [3]); 0.768 ± 0.0088 in the series on Saccharomyces cerevisiae [1] (setting [4]); 0.6502 ± 0.0037 in the series on Saccharomyces cerevisiae [1] (setting [5]); 0.778 ± 0.018 with Saccharomyces cerevisiae [1] (setting [6]); 0.335 ± 0.01 with Saccharomyces cerevisiae [1] (setting [7]); 0.349 ± 0.028 in the series with Saccharomyces cerevisiae [1] (setting [8]). In addition, the protein stability index in the series on Saccharomyces cerevisiae [1] (setting [9]) was 0.592 ± 0.024; in the series on Saccharomyces cerevisiae [2], 0.437 ± 0.015.

SPPPLFLIVLHL: the protein stability index in the series on Saccharomyces cerevisiae [1] (setting [3]) came out at 0.495 ± 0.0063; in the series with Saccharomyces cerevisiae [1] (setting [4]), 0.562 ± 0.028; in the series on Saccharomyces cerevisiae [1] (setting [5]), 0.446 ± 0.021; with Saccharomyces cerevisiae [1] (setting [6]), 0.639 ± 0.012; in the series on Saccharomyces cerevisiae [1] (setting [7]) it was 0.4 ± 0.021; with Saccharomyces cerevisiae [1] (setting [8]) it was 0.371 ± 0.048. The protein stability index in the series on Saccharomyces cerevisiae [1] (setting [9]) was 0.52 ± 0.018; with Saccharomyces cerevisiae [2], 0.4283 ± 0.0032.

For SRCLALVICYRV, the protein stability index came to 0.539 ± 0.041 with Saccharomyces cerevisiae [1] (setting [3]); 0.582 ± 0.031 with Saccharomyces cerevisiae [1] (setting [4]); 0.439 ± 0.021 in the series on Saccharomyces cerevisiae [1] (setting [5]); 0.5979 ± 0.0043 in the series with Saccharomyces cerevisiae [1] (setting [6]); 0.152 ± 0.016 in the series with Saccharomyces cerevisiae [1] (setting [7]); 0.185 ± 0.024 in the series with Saccharomyces cerevisiae [1] (setting [8]). Moreover, the results for the protein stability index in the series with Saccharomyces cerevisiae [1] (setting [9]) and in the series with Saccharomyces cerevisiae [2] were 0.3 ± 0.0041 and 0.265 ± 0.011, respectively.

Turning to SRGKMTIVSNQI, the protein stability index in the series with Saccharomyces cerevisiae [1] (setting [3]) turned out to be 0.6525 ± 0.00094; in the series on Saccharomyces cerevisiae [1] (setting [4]), 0.734 ± 0.011; in the series with Saccharomyces cerevisiae [1] (setting [5]), 0.652 ± 0.021; in the series with Saccharomyces cerevisiae [1] (setting [6]) it was 0.7389 ± 0.0072; in the series with Saccharomyces cerevisiae [1] (setting [7]), 0.642 ± 0.011; in the series on Saccharomyces cerevisiae [1] (setting [8]), 0.669 ± 0.016. Further, the protein stability index in the series on Saccharomyces cerevisiae [1] (setting [9]) came to 0.704 ± 0.028; in the series on Saccharomyces cerevisiae [2], 0.574 ± 0.15.

In the case of SRGLVPMANRYC, the protein stability index amounted to 0.659 ± 0.07 with Saccharomyces cerevisiae [1] (setting [3]); 0.7383 ± 0.0028 in the series on Saccharomyces cerevisiae [1] (setting [4]); 0.656 ± 0.03 in the series with Saccharomyces cerevisiae [1] (setting [5]); 0.741 ± 0.018 in the series with Saccharomyces cerevisiae [1] (setting [6]); 0.142 ± 0.0075 in the series with Saccharomyces cerevisiae [1] (setting [7]); 0.16 ± 0.02 with Saccharomyces cerevisiae [1] (setting [8]). In addition, the protein stability index with Saccharomyces cerevisiae [1] (setting [9]) came out at 0.42 ± 0.014; with Saccharomyces cerevisiae [2] it was 0.298 ± 0.045.

SRPGRWRLYYVS: the protein stability index in the series with Saccharomyces cerevisiae [1] (setting [3]) was 0.6867 ± 0.0067; in the series on Saccharomyces cerevisiae [1] (setting [4]) it was 0.802 ± 0.016; with Saccharomyces cerevisiae [1] (setting [5]), 0.679 ± 0.0079; with Saccharomyces cerevisiae [1] (setting [6]), 0.758 ± 0.011; in the series on Saccharomyces cerevisiae [1] (setting [7]), 0.38 ± 0.023; in the series with Saccharomyces cerevisiae [1] (setting [8]), 0.383 ± 0.022. The protein stability index is 0.54 ± 0.0037 in the series on Saccharomyces cerevisiae [1] (setting [9]) and 0.401 ± 0.098 in the series with Saccharomyces cerevisiae [2].

Turning to SRSVLLCFCWLC, the protein stability index with Saccharomyces cerevisiae [1] (setting [3]) is 0.356 ± 0.055; in the series with Saccharomyces cerevisiae [1] (setting [4]), 0.4492 ± 0.0017; in the series on Saccharomyces cerevisiae [1] (setting [5]) it was 0.411 ± 0.038; in the series on Saccharomyces cerevisiae [1] (setting [6]), 0.5256 ± 0.0042; in the series with Saccharomyces cerevisiae [1] (setting [7]) it was 0.27 ± 0.0089; in the series on Saccharomyces cerevisiae [1] (setting [8]), 0.264 ± 0.014. Besides, the protein stability index with Saccharomyces cerevisiae [1] (setting [9]) was found to be 0.3461 ± 0.00068; in the series with Saccharomyces cerevisiae [2], 0.347 ± 0.011.

As for SVFCSLFLFLFY, the protein stability index amounted to 0.477 ± 0.025 in the series with Saccharomyces cerevisiae [1] (setting [3]); 0.5013 ± 0.0034 with Saccharomyces cerevisiae [1] (setting [4]); 0.4 ± 0.032 in the series with Saccharomyces cerevisiae [1] (setting [5]); 0.5568 ± 0.0013 with Saccharomyces cerevisiae [1] (setting [6]); 0.414 ± 0.026 in the series on Saccharomyces cerevisiae [1] (setting [7]); 0.388 ± 0.01 in the series with Saccharomyces cerevisiae [1] (setting [8]). Besides, the protein stability index with Saccharomyces cerevisiae [1] (setting [9]) is 0.517 ± 0.026; with Saccharomyces cerevisiae [2] it was 0.422 ± 0.037.

As to SVGCCLLCFFVL, the protein stability index was determined as 0.523 ± 0.012 in the series on Saccharomyces cerevisiae [1] (setting [3]); 0.563 ± 0.012 in the series on Saccharomyces cerevisiae [1] (setting [4]); 0.41 ± 0.03 in the series with Saccharomyces cerevisiae [1] (setting [5]); 0.5645 ± 0.0043 with Saccharomyces cerevisiae [1] (setting [6]); 0.339 ± 0.029 with Saccharomyces cerevisiae [1] (setting [7]); 0.351 ± 0.029 with Saccharomyces cerevisiae [1] (setting [8]). Besides, the values for the protein stability index with Saccharomyces cerevisiae [1] (setting [9]) and in the series with Saccharomyces cerevisiae [2] were 0.5031 ± 0.0027 and 0.425 ± 0.028, respectively.

The values above are taken from the supplement of paper PMC10724198.
